{
  "source": "paper PMC6476477",
  "about": "“A DNA aptamer reveals an allosteric site for inhibition in metallo-β-lactamases”",
  "conditions_in_all_cases": "protein: recombinant; tags: none stated; hairpin (M-fold predicted)",
  "key": {"[1]": {"biological_target": "T1, 5/B/6 metallo-beta-lactamase (MBL) wild type (Bacillus cereus 5/B/6, UniProt P14488 30-256)", "T1 sequence": "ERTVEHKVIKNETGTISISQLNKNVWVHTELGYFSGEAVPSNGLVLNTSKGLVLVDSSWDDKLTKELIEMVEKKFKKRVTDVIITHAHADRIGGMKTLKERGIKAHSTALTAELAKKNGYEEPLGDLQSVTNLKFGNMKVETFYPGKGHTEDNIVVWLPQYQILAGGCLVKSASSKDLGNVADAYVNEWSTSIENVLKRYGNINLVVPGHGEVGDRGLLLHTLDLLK", "test": "NMR 1H-15N HSQC titration; 750 uM enzyme, 0-4 eq 10-mer; range of fits for Lys78, Lys104, Lys107; 1 mM Zn2+ (NMR buffer); NMR: 20 mM MOPS, 1 mM ZnSO4, pH 7, 25 C (buffer stated for assignment sample; titration at 25 C); kinetic assay buffer not in the material"}, "[2]": {"biological_target": "T1, 5/B/6 metallo-beta-lactamase (MBL) wild …", "test": "enzyme inhibition kinetics (uncompetitive KI'); cefuroxime substrate; NMR: 20 mM MOPS, 1 mM ZnSO4, pH 7, 25 C (buffer stated for assignment sample; titration at 25 C); kinetic assay buffer not in the material"}, "[3]": {"biological_target": "T1, 5/B/6 metallo-beta-lactamase (MBL) wild …", "test": "enzyme inhibition; cefuroxime substrate; NMR: 20 mM MOPS, 1 mM ZnSO4, pH 7, 25 C (buffer stated for assignment sample; titration at 25 C); kinetic assay buffer not in the material"}},
  "data": [
    {"binder": "CCAAACTTGG (structured_DNA)", "note": "[10-mer DNA aptamer]", "values": [
      {"measurement": "Kd", "setting": "[1]", "value": 153, "unit": "nM"},
      {"measurement": "Ki", "setting": "[2]", "value": "63 ± 3", "unit": "nM"},
      {"measurement": "IC50", "setting": "[3]", "value": "120 ± 5", "unit": "nM"}
    ]}
  ]
}
